The assay deals with survivin peptide coating antigen, not stated which (SEQ ID NO:4 or SEQ ID NO:27). Kind of assay: indirect ELISA; coating peptide not stated.

We go through 2 molecules from US20200377613A1.

B1: mAb 30H3D2 (antibody, IgG1, V domains shown)
VH: EVQLVESGGDLVKPGGSLKLSCAASGFTFSSYGMSWVRLTPDKRLEWVATISSGGSHTYYPDSVRGRFTISRDNAKNTLYLQMSSLKSEDTAMYYCARHPIYYYISSYAMDYWGQGTSVTVSS
VL: DVVMTQTPLSLPVSLGDQASISCRSSQSLVHSTGNTYLHWYLQKPGQSPKLLIYKVSNRFSGVPDRFGGSGSGTDFTLKISRVEAEDLGVYFCSQSTHVPPTFGGGTKLEIK
Regarding B1, the titer (highest dilution with signal to blank ratio >2:1) (dilution (1:x)) came to 512000.

B2: mAb 2C2E7 (antibody, IgG2b, V domains shown)
VH: QIQLVQSGPELKKPGETVKISCKASGYTFTTYGMSWVKQAPGRGLKWMGWINPYSGVPTYAVDFKGRFAFSLETSASTAYLQINNLKNEDTATYFCARGGRRGDFGYWGQGTTLTVSS
VL: QIGLTQSPAIMSASPGEKVTMTCSASSSISYMHWYQQKPGTSPKTWIYDTSKLASGVPARFSGSGSGTSYSLTISSMEAEDAATYYCHQRSSHHTFGGGTKLEIK
With B2, the titer (highest dilution with signal to blank ratio >2:1) (dilution (1:x)) is 512000.
